Source: the DeepSol protein solubility set

Assay: soluble on expression in E. coli; label from the status in PepcDB or PDB records

Soluble on expression in E. coli, not soluble:
MILMIDNYDSFTFNLVQFLGELGQELVVKRNDEVTISDIENMKPDFLMISPGPCSPNEAGISMDVIRYFAGKIPIFGVCLGHQSIAQVFGGEVVRAERLMHGKTSPMHHDGKTIFSDIPNPFTATRYHSLIVKKETLPDCLEVTSWTEEGEIMALRHTTLPIEGVQFHPESIMTSHGKELLQNFIRKYSPSVTSC
KNSFNIKLKEDSEMLEEVVVTGYGGKQLRTKVTNSIAKVKDEALKVGLFSNPAQALSGAVAGLKVTQASGSPGAAPKVTLRGGTNFDGSGDPLVIVDGQLRDGMQDINPEDIESMEVLKDAGATAIYGARASNGVILITTKTGKEGR
SDLMTPWPIIEKRIVAAASADFVTAIYNPKSEGRYWQLYRFVEIFMQYRSADTPVGLVRQAGREEEQVTVTTLGEFDPEVVDMFTVVLVGNSQSYCYEGHFITPRGYYPEEEIEAKGI
RILYRHSNAMQHEYNQMMQSIDERKQYQVGKIKMGTGDAWWPLFVKQALNEHLTKQPSASTHVEFGNHLGLMDSLINEQIEFFIGHEIVGLSSKCDVTFIPLFQTVDAYFVSSNHPLLGKTVTEEMLHEYPALSVTYDAKKFAHVIDNPIPKQNERERQQLDDRPTYEVDSLLASIDVLKESVAVMSYTRHLQSYLESFGLRCLTMENEPNPGTVGIYRHRRETSESHLDLIAGITQRAKLLN
MGSDKIHHHHHHMRINVEEAIEKLLANQLVAMPTETVYGLAARLTCPGAIKKIFEIKGRSLVNPLIIHVANPIDVCAYAIALPPHFDALTHAFWPGPLTLIVPIQLDLVDSIVRAGLPTAAFRMPSHPLTLHVIRAVGPLVMPSANLSGKPSSTDVKHVEMDFGLDFPVLDGGPCQEGVESTILHYRNSQWEIARLGALSATVFQPILGYEPIYQKIVKNDQIISPGQMFRHYAPQATLFLGDQKQITEADFIVGFTEKSYPVEKRVLYLGSLSNPHEVAENLYAVLRQLDFEKAKIAWVDMDFPSEGLWKTIAERLSRAGEK
KGSTFIKAQDKYEVNILYLISHALVETGNGQSDLSKGIKEGDHHYYNFFGIGAFDEDAVKTGKSFAKQKKWTTPEKAIMGGAWFVRYHYFKNNQLSLYQMRWNPQNPGQHQYASDIQWANNIADLMEKYYDKYGIKKDHIRKKYYK
MGHHHHHHSHMDNAEAQFTTALRLTNHQELWAFIVTNLASVYIREGNRHQEVLYSLLERINPDHSFPVSSHCLRAAAFYVRGLFSFFQGRYNEAKRFLRETLKMSNAEDLNRLTACSLVLLGHIFYVLGNHRESNNMVVPAMQLASKIPDMSVQLWSSALLRDLNKACGNAMDAHEAAQMHQNFSQQLLQDHIEACSLPEHNLITWTDGPPPVQFQAQNGPNTSLASLL
MKEIKFLHIADLHLDSPFIGLSTLPQPLFSAVQESTFQSLERIITIAIKEAVEFVLIAGDIYDSEDQSVRAQARFSKEMKRLEQAGIKAFIIHGNHDFIEKHKEKLQLPGNVHVFSEQVEMAAMETKNGAIVHIYGFSYGERHIRASRVNEYNKQGEADFHIGLLHGSELSSSEDHDVYAPFRIQEITKKGFDYWALGHIHKRQLLAESPSVYYPGNIQGRNRKESGEKGASIVTLSASNTTIDFIATSPIIWEEVIITLPENSEINTFYREITKLLATYQGQSNSFFLHVIVQMANKQKINTTDWLQMLQEETDLTGSTFIWVHKLTIELTNQSDLKNWHEQHLASKEITQAFEKLQDESAFYQTVEALYFESGVSRYLDDLSEEDRQLMLDAALTELGTVLKEVEGDEK
MEIFQKAKAVRLRSHHDKYLVADEDEESVTQERNGSAGAAKWTVEIIPGSTNLIRLKSAYGKYLTASNKPFLLGATGKKVLQTKPSRLDSSLAWEPIRDSALVKLKTRYGNFLRGNGGLPPWRNSVTHDIPHRSATQEWVLWHIDVVEILPANANSDHHHQHLQLQQPPSPLHHSDSLDFTPGSPSRSDRFFRQESTDSLAVGSPPKSEGRVIYYHVADDDDDVEDDSVEVSSFTFKGNGVEELTMRLKEESNVEDVIVCTRSPLNGKLFPLRLQLPPNNADMTVVLVPKSSKSESLLVLISSQVVALSLMFSVFLDLTVAEKFIK
MGSDKIHHHHHHMAYQLRSAALTNYVEVARAVGLDPYQQLRAARISRSVLLDPDIRIPAQAVSRLLESSANAAGIQDFGLRMAETRQLSNLGPLAFAMRQEPTLRRALESMARYLRLQNEAIAMRIEEAEGLVMLRQEALTGVAGSLRQSTDLVVGVLYRVLALVLGPKWRPRSICFSHAAPGSTAMYLRLFGMPVLFNQEFDGIICVASDLEVPLPSYDPTMARQVQQYLDTMLAQSDATISDKVRRLVLALLPSGACTIERVAQHMGVDVRTVQRRLANYDETFSAIVTATRVDLATRYLENRERPLSEVATLLGFGSLSAFSRWFGGHFGCSVSKWRAKGFAKAVKKEGAGRSH
NTFYEITLEDESVLLDEVVAIGYGTQSKATVTSGVVSVKKAELMSSVSASPLNNLQGKVAGLDIRQTTGQPGAQPVVLIRGGSTDPANDSPLFVIDGVVRSNMNGLNQEDIESMEVLKDAASAAIYGAKAANGIILITTKQGSSKD
MSLSTIYDIAKHAGVSKSTVSRVLNNQANISEESRKKVLAAIDQLNYQPSKLARALTSSGFDAIMVISNRSTTTTTGNPFFSEIIQSISTQAELENFDLILQTAKNSEDELKKCLSKIQEKMIKGIIMLSSPADEDFFHQLDPYNIPIVVTGKVEGHYKNIYSVDTDNFGDSYALTKHLIKQGHQKIACIHAPLDYHVSIDRLAGFRSCLFDHQLDLRNDWIIDSGYSIEDSYKAALRLMEGPDKPTAVFATDDLKVLSIYKMAADKNLQIPTDFSVIGYNDKVASSFLSPPLTSIDIPINKLGKKATNLLFRLIHQDKNVPKTTIIQTEMIERESIQKINEGHHHHHH
MGSDKIHHHHHHMRGGNIETMVAGTIKVVQMLPDLNEGGVEKGTLELGAFLTESGHQSIVISGGGRMVSQLESEGSRHLTWPHIGEKSPRCLNYFFPLRRFLLKEGVDIVHLRSRLPAWVAFLAWKSLPVKRRPVLITTFHGFYSVNFYSAIMTRGERIIAVSKTIADHIREAYDVAAERIVLIPRGLDEEQFNPENVTVERIRNLKERWGLNGNTDPVVMLPGRVTRLKGQDVFLQSLAGIKELPWKAIMVGESDATSEYTRILEKMVGDPDLRERVKFVGHCSDMPAAMTLADIVVSTSTKPESFGRTSVEAQAMRKPVIVSAHGGSLETVLDGKTGWHVKPGDSEALSACLRIALSDESVRKKMGVEGRKWVVSQFTVTKMCEKTVALYQELLLRKSSWSQI
MGITDGVVVDLGGGTTGISILEKGKVIFVADEPTGGTHMTLVLAGSYGIDFETAEDIKTDKKKEKEVFVQITPVLQKMAAIVKKYIKDYKVKDVFLVGGACSFDGSESIFERELGLNIYKPYMPVLEHHHHHH
MSKRNTQQRRHNIIADLNAQGEVSVDSLAKQFDTSEVTIRKDLAALETSGLLLRRYGGAVALPSEITEAKVDQLSQQKLHIAKKAAMLIRDHNRIIIDSGQTTSALVSELANKKGLVVMTNALSIANEIHALENEPTLLMTGGTWDATSEAFQGQVAEQVLRSYDFDQLFIGADGIDIKRGTTTFNELIGLSRVMAEVAREVIVMVESAKITKKIPNLELNWQQIHTVITDDGLSEEMRIALTEQGVKLIIAKG
MAHHHHHHMHAYSGRMEHRKMVEVKDVPQNMYTYGKEGMSIPISIFKDQADPVIGPEWTYPGIFENKIVAQHWYMEELFDREKSNTFESPWQRQVLDNQVKRRLGKVAWRMSMLNIKTIDIFHKERGASKRPGAGDTKAPATPAGKK

Soluble on expression in E. coli, soluble:
MTITKLAWRDLVPDTDSYQEIFAQPHLIDENDPLFSDTQPRLQFALEQLLHTRASSSFMLAKAPEESEYLNLIANAARTLQSDAGQLVGGHYEVSGHSIRLRHAVSADDNFATLTQVVAADWVEAEQLFGCLRQFNGDITLQPGLVHQANGGILIISLRTLLAQPLLWMRLKNIVNRERFDWVAFDESRPLPVSVPSMPLKLKVILVGERESLADFQEMEPELSEQAIYSEFEDTLQIVDAESVTQWCRWVTFTARHNHLPAPGADAWPILIREAARYTGEQETLPLSPQWILRQCKEVASLCDGDTFSGEQLNLMLQQREWREGFLAERMQDEILQEQILIETEGERIGQINALSVIEFPGHPRAFGEPSRISCVVHIGDGEFTDIERKAELGGNIHAKGMMIMQAFLMSELQLEQQIPFSASLTFEQSYSEVDGDSASMAELCALISALADVPVNQSIAITGSVDQFGRAQPVGGLNEKIEGFFAICQQRELTGKQGVIIPTANVRHLSLHSELVKAVEEGKFTIWAVDDVTDALPLLLNLVWDGEGQTTLMQTIQERIAQASQQEGRHRFPWPLRWLNWFIPN
GPGSMYSYNNIIEKNEPCKKDVIENLQLSLSPTGAVRQFRVDERVDVVVVEGFLSNDECDQLIAACEKVGYTFWRQKDPNAEGEEAGCCGEAEARAFRVVDTIEANFPTLSQVLSSRIEKVVKLDPKTFSPSMEGAEELFARDLEGTWVPQQLAQNLLFARYGAGGHFSPHIDGSTIVDINTRSLYTLLIYLNDCEAGGETVLFDGEQAEVLKRDAESGKYIGRRENRIGAVKPTKGTAAFFYYDVLHEGSPVGEGHSKYIIRGDFLYRRNPPILTAENDMKAFELYEKARVAESNGDVFAACEMFQRVRKLSKGVAELYQL
MSLKILIPTAKEMNTDLPSIEAIPLKPESQTVLDALALYSASQLESFYKVSAEKAAEEFQNIQALKRQTAQHYPALKLFDGLMYRNIKRDKLTEAEQDYLENHVFITSALYGVVPALSPMAPHRLDFLMKLKVAGKTLKSHWKAVYDEALKKEEVIFSLLSSEFETVFSKEIRAKMVTFKFMEDRGGQLKIHSTISKKARGAFLTALIENQVQTVGEARRLNFAGFVYREDLSQPQGLVFVKEVEGHHHHHH
MGNIMSASFAPECTDLKTKYDSCFNEWYSEKFLKGKSVENECSKQWYAYTTCVNAALVKQGIKPALDEAREEAPFENGGKLKEVDK
SLLAMPSAISVAVLPDSPHAREMATKAHNSGHEVLIHLPMAPLSKQPLEKNTLRPEMSSDEIERIIRSAVNNVPYAVGINNHMGSKMTSNLFGMQKVMQALERYNLYFLDSVTIGNTQAMRAAQGTGVKVIKRKVFLDDSQNEADIRVQFNRAIDLARRNGSTIAIGHPHPSTVRVLQQMVYNLPPDITLVKASSLLNEPQVDTSTPPKNAVPDAPRNPFRGVKLCKPKKPIEPVYANRFFEVLSESISQSTLIVYFQHQWQGWGKQPEAAKFNASAN
MAESMQSKPSFEYPKRAAIGSYWSNRNRDEKHFKNLGPASLSSASAGKVMQWMLSHTCNGVPKPKGGYDAFGKIWYAPCNMAESVAQWRASMSNDEAQPAKNRVYWIGHSSQLLCLSNGINILFDPIFSQRASPLSFAGPSRRFPPAATAAQLPPIHIVTVSHNHYDHMDKQSIKAVAARFPDAHFVVPLKLDRFLREWGVPGASITTLDWYEACEVKGVRVGCTPAQHWGKHSAFDDNEVLWCGWCVGWQPGQQQQPASTCEKPTLISFSGIEPSSEALVEAQRTWNRYKKYFFAGDTAYNPDVSTSIYAHFGPMDMAALPIGAYSPRWFMARAHIDPEHAVQIFKDQHIQQAVAVHWGTFELADEPLDEPPQVLRKTLKDASIDENRFQIIPMGKFIEF
MSLATIKDVAQRAGLSISTVSRYLNHHPYISEDKKIKIQQAMDELDYVPNLVAMQLRSNKSYTIGIIVPRITNPYFAYLIDAIDKKIKGTPYHTLIMQTYNDKEEELRLLNMFKQRQIAGVIMGALENDIEVLETYTKYGPIILSADQSMQSDKVKIIHTTQRQTTYDAIQYLINKGYRNIAYCTDNNYYDHCFNKPRNVGFRVAMKDNGLDIRNEWIFNNVHTIEDGEQIGKILLRQEQLPDAIFTGSDEVALGLMHFMTAHQIDIPNQIAIMGYDNQPISSLLKIPLSTVNQPVNDIGMQLINYLLALLEETEFEINDNVLKLNIVERQSTEGHHHHHH
